The target of test [1] is Anti-OVA IgG (rabbit-derived). As to the kind of experiment: ELISA: OVA coated, rabbit Anti-OVA IgG, then K-tag pG alone (negative control), then HRP-labeled anti-guinea pig IgG, TMB. The signal needs a second free IgG-binding site. In general terms: ELISA stands for enzyme-linked immunosorbent assay.
Test [2] deals with Anti-OVA IgG (rabbit-derived). As to the kind of experiment: ELISA: OVA coated, rabbit Anti-OVA IgG, HRP-labeled anti-rabbit IgG. Signal against the no-antigen control.
For test [3], the target named is Anti-OVA IgG (rabbit-derived). As to the kind of experiment: ELISA: OVA coated, rabbit Anti-OVA IgG, then HRP-labeled anti-rabbit IgG instead of the hybrid, TMB (sample No. 8).
Test [4] addresses Anti-OVA IgG (rabbit-derived). As to the kind of experiment: ELISA: OVA coated, rabbit Anti-OVA IgG, then wild-type pG sample (negative control), then HRP-labeled anti-guinea pig IgG, TMB. The signal needs a second free IgG-binding site.

Regarding “recombinant protein G with K-tag (K-tag pG), alone, not cross-linked to polymer”, the change in the absorbance at 370 nm (dO.D./min) in test [1] was less than 0.03 dO.D./min. For the substance “commercially available HRP-labeled anti-rabbit IgG (antibody)”, in test [2], the S/N ratio (No. 8 against No. 4 without antigen) stood at 4.6. Also, the change in the absorbance at 370 nm (dO.D./min) in test [3] was found to be 0.18 dO.D./min. As for “wild-type pG having no introduced K-tag (thrombin-treated K-tag pG)”, the change in the absorbance at 370 nm (dO.D./min) in test [4] was less than 0.03 dO.D./min.

Source of the values: patent US20160251450A1.
